The source of these data is the DeepSol protein solubility set.

The series can be described thus: soluble on expression in E. coli; label from the status in PepcDB or PDB records.
On to “MFGFGGFTRDLGIDLGTANTLVYVKGKGVVLREPSVVALQTDTKQIVAVGSDAKQMIGRTPGNVVALRPMKDGVIADYETTATMMKYYIQQAQKSNGFFSRKPYVMVCVPSGITAVERRAVIDATRQAGARDAYPIEEPFAAAIGANLPVWEPTGSMVVDIGGGTTEVAIISLGGIVTSQSVRVAGDDMDDSIIQYIKKSYNLMIGERTAEALKLEIGSAGEPEGIEPMEIRGRDLVSGLPKTVLIQPEEIADALKDTVDAIVESVKNTLEKTPPELAADIMDRGIVLTGGGALLRNLDKVISEETNMPVLVAEDPLDCVAIGTGKALDNIDLFKTAAR”, for which the “soluble on expression in E. coli” value is on record as “not soluble”.

With “MGSDKIHHHHHHMEKLRVIEMIKNNPNIIATIDNPTDEMKLLAIKENGLVLEYINNPTREMQELAIDNNIRAIKFIDNPTEDMMIKAVNEGWSILDYIKNPTDKVIEMAINQAGWAIKYAKNPSEELQLLAVRKNYDSIKFIKQPYESVQEEAVRISYDALRYIDSPSYNAELVAIKNNEAAISFITDLDKNKMLEFLKVNILVIKYILKKVSKDELESVLKEVLSKEDVEEKYIRDFLNCSVIDRNSESIPIDKIMFIYKYGSKTAKKIAVDEKLKIM”, the “soluble on expression in E. coli” value is “not soluble”.

On to “MDIGRAVRFLRKRQGWTQQQLADFSHTSKSNISNLENGNQGYSPAILEYLAKAFNCSVSQIFLLAENMDNEGNLLKDWQHMPIDVLFIQLPQEVQCQLKHLIFTLIDTKK”, for which the “soluble on expression in E. coli” value is recorded as “not soluble”.

On to “SASGDFCSPGEGMEILQQVCSKQLPPCNLSKEDLLQNPYFSKLLLNLSQHVDESGLSLTLAKEQAQAWKEVRLHKTTWLRSEILHRVIQELLVDYYVKIQDTNVTSEDKKFHETLEQRLLVTELMRLLGPSQEREIPPLLGLEKADLLELMPLSEDFVWMRARLQQEVEEQLKKKCFTLLCYYDPNSDADSETVKAAKVWKLAEVLVGEQQQCQDAKSQQKEQMLLLEKKSAAYSQVLLRCLTLLQRLLQEHRLKTQSELDRINAQYLEVKCGAMILKLRMEELKILSDTYTVEKVEVHRLIRDRLEGAIHLQEQDMENSRQVLNSYEVLGEEFDRLVKEYTVLKQATENKRWALQEFSKVYR”, for which the “soluble on expression in E. coli” value was “not soluble”.

On to “MLEVLVALAIFATAAISVIRSVSQHINTVSYLEEKMFAAMVVDNQMANVMLDTGALKAKNGTEELAGRTWYWKVTPVATTQPLLKAFDVSVATAKNASPVVTVRSYVAQ”, for which the “soluble on expression in E. coli” value is given as “not soluble”.

As for “MYEQACTTILVGKKATVDGSTMIARNDDTFMPITPQKFIVHPAVHGRNETLTSGKNGFTAPLPADGYRYQAVPNIEVAEKGVFEENGFNEKNVGVSSTESVYGNEHTLTFDPFVPNGLAEDSLPTMLTPFIDSARGGVEYLGQLIAKYGSPEGNGVLFNDKDDVWYMEIVTGHHWVAQRIPDDAYAVAANQVAIQWVDFDDPDNFMWSDGIQEFVAEHHLNPDKEGFNFRHIFGTDNEKDRHYNTPRVWYGQRYFNPEIEQDPQSSELPFICHAAKKISVADVEFVLGSHYNETKYDPFLNTPEAKKFRPISMNRTQNSHVMQVRNDVPAEQSAIMWMTFGVPAFAPYLPFHANVSETDPSFANTPLKHDMNSAYWLYRTLSMIVESHYADFVQDDIDYLKECRIELGQFVAATDEQAAKLSGDELTAFLTEQDKVMVAKMRDKAQALIGQLVTKGLTLSKLTYNVDINLLEHHHHHH”, the “soluble on expression in E. coli” value was “not soluble”.

Regarding “MGSDKIHHHHHHILVKNKIDNEFNWISMKEEQKLNVPIENQMPDLPNGCEVTSLSMLMNYYGIRVTKNELAQNIQHVSSFTNNGKYRGNPNQGFVGYMSIENAGWCVYNGPLYNVARKYTNRIQNATGSDFLSILKLVSDGHPVLIITTTTFNRVNNMQTWETNTGKVNVTPSSHACVITGYDKKKRIVYLNNPYGIKNQAVNWNNLENSYNQQGKQALYIK”, the “soluble on expression in E. coli” value is listed as “not soluble”.

In the case of “MLDDVRLLANGLLQLGQSLREFVHKTKSQTNDIFQKLNIFDRSFYQLSVVTSEIKEEEEKLKGLSQPITVSIHQPEQRAKHTKEA”, the “soluble on expression in E. coli” value is given as “not soluble”.

In the case of “SMTGPIVYVQNADGIFFKLAEGKGTNDAVIHLANQDQGVRVLGAEEFPVQGEVVKIASLMGFIKLKLNRYAIIANTVEETGRFNGHVFYRVLQHSIVSTKFNSRIDSEEAEYIKLLELHLKNSTFYFSYTYDLTNSLQRNEKVGPAASWKTADERFFWNHYLTEDLRNFAHQDPRIDSFIQPVIYGYAKTVDAVLNATPIVLGLITRRSIFRAGTRYFRRGVDKDGNVGNFNETEQILLAENPESEKIHVFSFLQTRGSVPIYWAEINNLKYKPNLVLGENSLDATKKHFDQQKELYGDNYLVNLVNQKGHELPVKEGYESVVHALNDPKIHYVYFDFHHECRKMQWHRVKLLIDHLEKLGLSNEDFFHKVIDSNGNTVEIVNEQHSVVRTNCMDCLDRTNVVQSVLAQWVLQKEFESADVVATGSTWEDNAPLLTSYQNLWADNADAVSVAYSGTGALKTDFTRTGKRTRLGAFNDFLNSASRYYQNNWTDGPRQDSYDLFLGG”, the “soluble on expression in E. coli” value was “soluble”.

In the case of “MHHHHHHVSLDKAVIARLRKGGEEFEVLVDPYLARDLKEGKEVNFEDLLAAEEVFKDAKKGERASVDELRKIFGTDDVFEIARKIILEGEVQITAEQRREMLEAKRKQIINFISRNTIDPRTNAPHPPSRIERALEEAKVHIDIFKSVEAQVKDIVKALKPILPLKFEEMEIAIKIPPEHTGRAISALYNFGGVTREEWQRDGSWICVMRIPSGMYGDLMDLLGKVAKGEALTKVLRRIG”, the “soluble on expression in E. coli” value is on record as “soluble”.

On to “MKVMLSLFKRESIKGITMKKSTLLNSELSYLVATLGHTDEITICDAGLPIPDEVTRIDLALTHGVPSFLETVRVILSESQIESVIVAQEFAQVSPVLHEALYRELKAEEQLCGKPIAIQYISHEAFKQRTLQSRAVVRTGECTPYANVIFQAGVVF”, for which the “soluble on expression in E. coli” value is recorded as “not soluble”.

“VVRVGRRSATFYPPEGAAALIGDFTDWERNPIPLEGPLTLEFPEGAYVEYAFLDREGRPFPDPDNPEKAENPWWSYPRAIKLPGFRYEAPPAPKEEPKVHRHRLGERRFYVAETGPSPKATVVAQDGVAFYRTAGLHKVARALFEAGEIPPVRLVFVEPIDRNTEYRFNEAYEAEFHRVLEEVEGAYGPLNELVLVGASLGGLFSLWQAWRHPERFPKVLALSPALKAHPGGKDAYRDEEWLLARYAEARRLPRVYVEVGLLEWLLGPNRRLAALFADKKVPHAYRERPSGHNWVTWKQALAPGLRYLLGPQ”: the “soluble on expression in E. coli” value is listed as “soluble”.

On to “MSLERKKYNFNSEWRLQIGDFPEAKQSQFDDSRWKAVTLPHAFNEDEAFKVSIEQLTDTVVWYRKHFRIPASGKKQKVFIEFEGVRQAGDFYLNGQYLGKHENGVMAAGFDLTPYIKEGDNVLAVRTDNDWMYREKSTNSKFQWNDRNFNANYGGLPKNVFLYVTDEVYQTLPLYSNLKTTGVYIYAKDIDVKGRTATIHAESEVKNDSREPRQFSYQVVLLDADGKQVKSFEGEKVTLQGGETRVVKAASKVNNLHFWSWGYGYLYTVQTILKDNKNQVFDEVSTRTGFRKTRFAEGKIWLNDRVIQMKGYAQRTSNEWPAVGLSVPAWLSDYSNGLVVKGNGNLVRWMHVTPWKQDVESCDRVGLIQAMPAGDSEKDRTGRQWDQRTELMRDAIIYNRNNPSILFYECGNKGISREHMIEMKAIRDQYDPFGGRAIGSREMLDIREAEYGGEMLYINKSEHHPMWATEYCRDEGLRKYWDEYSYPFHKEGDGPLHRNQPATDYNHNQDMLAIAMIRCWYDYWRERPGTGRRVSSGGAKIIFSDTNTHHRGEENYRRSGVTDPMRIEKDAFFAHQVMWNGWVDTEEDNTYIIGHWNYPANTVKPVYVVSTGEEVELFLNSQSLGKGKREYNFLFTFDNVAFKAGKLEAVSYNKAGKEISRYAVSTVGEPAGLKLTTIQNPEGFHADGADLALIQVEVVDKDGKRCPLDNRTIQFDLKGNAEWRGGIAQGKDNYILNTSLPVECGINRALIRSTTQAGKITLTAKAEGLPSATITLETLPVKVSNGLSTYLPQMTLKGNLDKGKTPLTPSYKDTKRDIRIVSAKAGANNETVNQSFDDNERSEWMNDGKLSTAWITYTLEKEAAIDDICIKLNGWRSRSYPLEVFAGNTMIWSGDTNKSLGYVHLNVEKPVRSKQITIRLKGNTSDQDAFGQITEVAAKAANDMELEAKANKNNANLRIIEIEFLEAIKEGHHHHHH”, for which the “soluble on expression in E. coli” value is on record as “soluble”.

“MIKRFLEDTTDDGELSKFVKDFSGNASCHPPEAKTWASRPQVPEPRPQAPDLYDDDLEFRPPSRPQSSDNQQYFCAPAPLSPSARPRSPWGKLDPYDSSEDDKEYVGFATLPNQVHRKSVKKGFDFTLMVAGESGLGKSTLVNSLFLTDLYRDRKLLGAEERIMQTVEITKHAVDIEEKGVRLRLTIVDTPGFGDAVNNTECWKPVAEYIDQQFEQYFRDESGLNRKNIQDNRVHCCLYFISPFGHGLRPLDVEFMKALHQRVNIVPILAKADTLTPPEVDHKKRKIREEIEHFGIKIYQFPDCDSDEDEDFKLQDQALKESIPFAVIGSNTVVEARGRRVRGRLYPWGIVEVENPGHCDFVKLRTMLVRTHMQDLKDVTRETHYENYRAQCIQSMTRLVVKERNRNKLTRESGTDFPIPAVPPGTDPETEKLIREKDEELRRMQEMLHKIQKQMKENY”: the “soluble on expression in E. coli” value was “not soluble”.

For the sequence “MSLKGSEVITKFSKVDTIMFDKTGTLTYGDPRVSQVKKYGQGQLAEQLLVSVEKESAHPLAKAITGYYEDLEAEEVEASRVLQGGGIVAQVAGQQVLVGNRYLLDQYHVLVTKEMERDMEELASAGNSLVLVAVNGQLELALGLKDEIRAGVKEDLAALKKQGVKNLLLLSGDNQKTVDLVAEELGPTEAYGQLLPEDKAEFVKKRQAAGEIVAFVGDGINDSPSLARADIGIAMGSGTDVAIETSNVVLMNGSFDRIPRALALAKATRRNMIENEGHHHHHH”, the “soluble on expression in E. coli” value is on record as “soluble”.

For “MAGFVPLRWPISRMSSAVPRYIVGIDLGTTHTVVSYADGGDPSRIEPLFLEQLVAPGQVAGRPLLPSVRYHPATGELAEADTALPWPVEETAPGCRPVIGEFARQLGSRSRGRLVASAKSWLCHTGVDRTADILPWGAPDEVPKVSPVEASASFLRHVRCAWNHRFPAHPLETQDVIVTIPASFDDAARALTVEAARRAGLANVRLLEEPQAACYDFLWTYRGRLAETLEGVNLLLVCDVGGGTTDFTLIRVDAGGSEPELERIAVGNHLMLGGDNIDLTLAHRLEPRLTGAERSLSATDLILLAEQCRRAKETLLAEQGPESVTVTLLGKGGGLIGGARSVELSRHEVLEVVLDGFFPRVGADAVPERRSGVVEFGLPYAADPAITRHAAAFLIRHRNDAGGAAPDALLLNGGVFHSPVIAGRMAEVVGSWCGRTPVMLRNPRPDQAVAFGAVAFGLSRRGLAVRRIGGGSARAYYLLVGDANERSRRGVCILPRGAAEGQEWTVERRNFLLSVGRPVRFHVFSSTVDSGHAPGDLAVLDEAGFGELPPLAVALQAQEQGDVEVRLAARLTAIGTLQLQCVAVGDPEQRWDLELQLRGGGPRPTASASLHPRAAEAQEHIGLIFGKKTRQFGPKAVKTLRNDLEKILGKREDWDTALCRELYAALLEGAPHRRRSADHERLWLSLAGYCLRPGFGAPLDDWRVGQVWNLYSQGLQFVNEAQNWSEWWIVWRRIAGGLRAEAQQRLFADVAGFIDPVRARRGNAEALAKKRAFEDMVRLAASLERLSAGDKTMLGGWLVQRLDKAPDSAELWWALGRVGARAPFHGSAHNLVAREVVEDWVELALQRDWKRQGFVAFAATLLARLTGDRERDLDATLRNRVAEKLVASSAPEIWLELVTEVRGLDASDEKRIFGEGLPPGLRLVDSAWGALEHHHHHH”, the “soluble on expression in E. coli” value is reported as “not soluble”.

For the sequence “MRANIWQILSVSVLFFFGTAIGQAQSRNRTYEAYVKQYADEAIRQMSRYNIPASITIAQALVETGAGASTLASVHNNHFGIKCHKSWTGKRTYRTDDAPNECFRSYSAARESYEDHSRFLLQPRYRPLFKLDREDYRGWATGLQRCGYATNRGYANLLIKMVELYELYALDREKYPSWFHKSYPGSNKKSHQTTKQKQSGLKHEAYFSYGLLYIIAKQGDTFDSLAEEFDMRASKLAKYNDAPVDFPIEKGDVIYLEKKHACSISKHTQHVVRVGDSMHSISQRYGIRMKNLYKLNDKDGEYIPQEGDILRLR”, the “soluble on expression in E. coli” value is given as “not soluble”.
